Assay results published in publication PMC3785249.

Columns and labels:
[1] = molecular target: S267E/L328F variant of human IgG1 (human); experiment: SPR; Biacore; antibody variants captured on a CM5 chip with immobilised antigen peptide or protein A/G, FcγR injected; kinetic analysis by global fitting with a 1:1 Langmuir model (KD)
[2] = molecular target: V12 variant of human IgG1 (human); experiment: SPR; KD for soluble hFcRn at pH 6.0; as described previously (Igawa et al., 2010)
[3] = molecular target: wild-type human IgG1 (human); experiment: as above
[4] = molecular target: human FcγRIIb, extracellular region (UniProt P31994); experiment: binding screen of single-substitution variants (method not named in legend); conditions: read off a plot
Sequence of UniProt P31994 (P31994 43-217): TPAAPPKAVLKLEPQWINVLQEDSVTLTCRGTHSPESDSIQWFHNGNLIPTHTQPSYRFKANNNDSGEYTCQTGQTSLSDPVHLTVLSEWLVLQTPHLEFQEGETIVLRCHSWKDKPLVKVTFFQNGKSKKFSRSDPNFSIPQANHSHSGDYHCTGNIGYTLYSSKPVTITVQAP

[5] = molecular target: human FcγRIIa^H131, extracellular region (UniProt P12318); experiment: as above; conditions: read off a plot
Sequence of UniProt P12318 (P12318 34-217): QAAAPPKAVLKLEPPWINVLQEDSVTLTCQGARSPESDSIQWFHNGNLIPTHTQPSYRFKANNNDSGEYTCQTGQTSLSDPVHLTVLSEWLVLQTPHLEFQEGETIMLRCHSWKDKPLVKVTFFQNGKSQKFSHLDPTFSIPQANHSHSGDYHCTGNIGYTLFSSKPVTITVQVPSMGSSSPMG

[6] = molecular target: human FcγRIIa^R131, extracellular region; experiment: as above; conditions: read off a plot

Substance	fold increase in affinity over IgG1, KD (IgG1)/KD (Fc variant) [1]	Kd [2]	Kd [3]	percent of parent (template antibody = 100) [4]	percent of parent (template antibody = 100) [5]	percent of parent (template antibody = 100) [6]
human FcγRIIa^R131, extracellular region (receptor)	864 fold	–	–	–	–	–
recombinant, soluble human FcRn (from UniProt P55899 24-297) (complex)	–	1400 nM	1500 nM	–	–	–
wild-type human IgG1 L328E	–	–	–	180	15	–
wild-type human IgG1 L328F	–	–	–	300	53	190
wild-type human IgG1 P238D	–	–	–	210	2	12
wild-type human IgG1 S267E	–	–	–	410	100	190
